Results reported in patent US20050154189A1 (MAXYGEN, published 2005).

Target: T1, Soluble CTLA-4-Ig (human, UniProt P16410 36-161, FITC-conjugated in the two-colour FACS assays; unlabelled and detected with FITC goat anti-human IgG in the concentration-dependent assay)
T1 construct: extracellular domain; Bought from R&D Systems; also called sCTLA-4-Ig; CTLA-4-Ig Fc; not shown: Fc portion of human IgG1
Test: two-colour FACS profile on transfected cells; score of preference for CTLA-4-Ig over CD28-Ig vs WT hB7-1

T1 sequence (P16410 36-161): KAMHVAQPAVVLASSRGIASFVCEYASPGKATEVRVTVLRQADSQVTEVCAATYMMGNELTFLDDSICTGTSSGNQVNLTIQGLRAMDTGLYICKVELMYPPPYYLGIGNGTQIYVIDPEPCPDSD

Binding Score | Binder
1 | Round 2 CTLA4BP 5x1-f1 (ligand) VIHVTKEVKEVATLSCGLNVSVEELAQTRIYWQKEKKMVLTMMSGDMNIWPEHKNRTIFDITNNLSIVILALRPSDEGTYECVVLKYEKDAFKREHLAEVTLSVKADFPTPSITDFEIPPSNIRRIICSTSGGFPEPHLFWLENGEELNAINTTASQDPETELYTVSSKLDFNMTANHSFVCLIKYGHLRVNQTFNWNTPKQEHFPDNLLPSWAITLISVNGIFVICCLTYCFAPRCRERRRNETLRRESVRPV
0 | Round 2 CTLA4BP 5x2-e12 (ligand) VIHVTKEVKEVATLSCGHNVSVEELAQTRIHWQKEKKMVLTMMSGGMNIWPEYKNRTIFDITNNLSIVILALRPSDEGTYECVVLKYEKDAFKREHLAEVTLSVKADFPTPSISDFEIPTSNIRRIICSTSGGFPEPHLSWLENGEELNAISTTVSQDPGTELYAVSSKLDFNMTTNRSFVCLIKYGHLRVNQTFNWNTTKQEHFPDNLLPSWAITLISVNGIFVICCLTYCFAPRCRERRRNERLRRESVRPV
1 | Round 2 CTLA4BP 2x2-f1 (ligand) VIHVTKEVKEVATLSCGHNVSVEELAQTRIHWQKEKKMVLTMMSGDMNIWPEYKNRTIFDITNNLSIVILALRLSDEGTYECVVLKYEKDAFKREHLAEVTLSVKADFPTPSISDFEIPTSNIRRIICSTSGGFPEPHLFWLENGEELNAINTTASQDPETELYTVSSKLDFNMTTNRSFVCLIKYGHLRVNQTFNWNTPKQEHFPDNLLPSWAITLISVNGIFVICCLTYCFAPRCRERRRNERLRRESVRPV
0 | Round 2 CTLA4BP 2x4-h11 (ligand) VIHVTKEVKEVATLSCGHNVSVEELAQTRIYWQKEKKMVLTMMSGDMNIWPEYKNRTIFDITNNLSIVILALRPSDEGTYECVVLEYEKDAFKREHLAEVMLSVKADFPTPSISDFEIPPSNIRRIICSTSGGFPEPHLSWLENGEELNAINTTVSQDPGTELYAVSSKLDFNMTTNHSFMCLIKYGHLRVNQTFNWNTPKQEHFPDNLLPSWAITLISVNGIFVICCLAYCFAPRCRGRRRNERLRRESVRPV
1 | Round 2 CTLA4BP 5x1-d7 (ligand) VIHVTKEVKEVATLSCGHNVPVEELAQTRIYWQKEKKMVLTMMSGDMNIWPEYKNRTIFDITNNLSIVILALRPSDEGTYGCVVLEYEKDAFKREHLAEVMLSVKADFPTPSITDLEIPPSNIRRIICSTSGGFPEPHLFWLENGEELNAINTTASQDPETELYAVSSKLDFNMTTNHSFMCLIKYGHLRVNQTFNWNTPKQEHFPDNLLPSWAITLISANGIFVICCLTYCFAPRCRERRRNERLRRESVHPV
1 | Round 2 CTLA4BP 2x1-h12 (ligand) VIHVTKEVKEVATLSCGLNVSVEELAQTRIHWQKEKKMVLTMMSGDMNIWPEYKNRTIFDITNNLSIVILALRPSDEGTYECVVLKYEKDAFKREHLAEVMLSVKADFPTPSITDFEIPPSNIRRIICSTSGGFPEPHLSWLENGEELNAINTTVSQDPGTELYTVSSKLDFNMTTNHSFMCLIKYGHLRVNQTFNWNTPKQEHFPDNLLPSWAITLISANGIFVICCLTYCFAPRCRERKSNERLRRESVCPV
1 | Round 2 CTLA4BP 2x2-f12 (ligand) VIHVTKEVKEVATLSCGHNVSVEELAQTRIHWQKEKKMVLTMMSGDMNIWPEYKNRTIFDITNNLSIVILALRPSDEGTYGCVVLEYEKDAFKREHLAEVMLSVKADFPTPSISDFEIPPSNIRRIICSTSGGFPEPHLSWLENGEELNAINTTVSQDPETELYAVSSKLDFNMTTNHSFMCLIKYGHLRANQTFNWNTPKQEHFPDNLLPSWAITLISVNGIFVICCLTYCFAPRCRERRRNERLRRESVRPV
1 | Round 2 CTLA4BP 5x2-d7 (ligand) VIHMTKEVKEVATLSCGLNVSVEELAQTRIHWQKEKKMVLTMMSGDMNIWPEYKNRTIFDITNNLSIVILALRPSDEGTYECVVLKYEKDAFKREHLAEVMLSVKADFPTPSISDFEIPPSNIRRIICSTSGGFPEPHLSWLENGEELNAINTTVSQDPETGLYTVSSKLDFNMTTNHSFMCLIKYGHLRVNQTFNWNTPKQEHFPDNLLPSWAITLISVNGIFVICCLTYCFAPRCRERRRNERLRRESVRPV
1 | Round 2 CTLA4BP 5x2-b7 (ligand) VIHVTKEVKEVATLSCGHNVSVEELAQTRIHWQKEKKMVLTMMSGDMNIWPEYKNRTIFDITNNLSIVILALRPSDEGTYECVVLKYEKDAFKREHLAEVTLSVKADFPTPSITDFEIPPSNIRRIICSTSGGFPEPHLSWLENGEELNAINTTVSQDPGTELYTVSSKLDFNMTANHSFVCLIKYGHLRVNQTFNWNTPKQEHFPDNLLPSWAITLISANGIFVICCLTYCFAPRCRERRRNERLRRESVRPV

The remaining lines, values behind:

Binder | Binding Score
Round 1 CTLA4BP-5 (ligand, also called R1-5; R1 CTLA-4BP-5) VIHVTKEVKEVATLSCGHNVSVEELAQTRIHWQKEKKMVLTMMSGDMNIWPEYKNRTIFDITNNLSIVILALRPSDEGTYECVVLKYEKDAFKREHLAEVTLSVKADFPTPSISDFEIPPSNIRRIICSTSGGFPEPHLSWLENGEELNAINTTVSQDPGTELYTVSSKLDFNMTTNHSFMCLIKYGHLRVNQTFNWNTPKQEHFPDNLLPSWAITLISVNGIFVICCLTYCFAPRCRERRRNERLRRESVRPV | 2
Round 2 CTLA4BP 2x1-b12 (ligand) VIHMTKEVKEVATLSCGHNVSVEELAQTRIYWQKEKKMVLTMMSGDMNIWPEYKNRTIFDITNNLSIVILALRPSDEGTYECVALKYEKDAFKQEHLAEVTLSVKADFPTPSISDFEIPPSNIRRIICSTSGGFPEPRLAWMEDGEELNAINTTVSQDPETELYTVSSKLDFNMTANHSFMCLIKYGHLRVNQTFNWNTPKQEHFPDNLLPSWAITLISVNGIFVICCLTYCFAPRCRERRRNERLRRESVCPV | 1
Round 1 CTLA4BP-27 (ligand, also called R1-27; R1 CTLA-4BP-27) VIHVTKEVKEVATLSCGLNVSVEELAQTRIYWQKEKKMVLTMMSGDMNIWPEYKNRTIFDITNNLSIVILALRPSDEGTYECVVLKYEKDAFKREHLAEVMLSVKADFPTPSISDFEIPPSNIRRIICSTSGGFPEPHLSWLENGEELNAINTTVSQDPETELYTVSSKLDFNMTANHSFVCLIKYGHLRVNQTFNWNTPKQEHFPDNLLPSWAITLISVNGIFVICCLTYCFAPRCRERRRNETLRRESVRPV | 1
Round 1 CTLA4BP-11 (ligand, also called R1-11; R1 CTLA-4BP-11) VIHMTKEVKEVATLSCGHNVSVEELAQTRIYWQKEKKMVLTMMSGDMNIWPEYKNRTIFDITNNLSIVILALRPSDEGTYECVVLKYEKDAFKREHLAEVMLSVKADFPTPSITDFEIPPSNIRRIICSTSGGFPEPHLFWLENGEELNAINTTVSQDPETELYAVSSKLDFNMTTNHSFMCLIKYGHLRVNQTFNWNTTKQEHFPDNLLPSWAITLISVNGIFVICCLTHCFAPRCRERRRNERLRRESVHPV | 1
Round 2 CTLA4BP 2x1-c4 (ligand) VIHVTKEVKEVATLPCGHNVSVEELAQTRIHWQKEKKMVLTMMSGDMNIWPEYKNRTIFDITNNLSIVILALRPSDEGTYECVVLKYEKDAFKREHLAEVMLSVKADFPTPSITDFEIPPSNIRRIICSTSGGFPEPHLFWLENGEELNAINTTVSQDPGTELYAVSSKLDFNMTTNHNFMCLIKYGHLRVNQTFNWNTPKQEHFPDNLLPSWAITLISVNGIFVICCLTYCFAPRCRERRRNERLRRESVRPV | 1
Round 1 CTLA4BP-13 (ligand, also called R1-13; R1 CTLA-4BP-13) VIHVTKEVKEVATLSCGHNVSVEELAQTRIYWQKEKKMVLTMMSGDMNIWPEYKNRTIFDITNNLSIVILALRPSDEGTYECVVLKYEKDAFKREHLAEVTLSVKADFPTPSISDFEIPTSNIRRIICSTSGGFPEPHLFGLENGEEINAINTTASQDPETELYTVSSKLDFNMTPNRSFVCLIKYGHLRVNQTFNWNTPKQEHFPDNLLPSWAITLISANGIFVICCLTYCFAPRCRERKSNERLRRESVRPV | 1
Round 2 CTLA4BP 2x1-g8 (ligand) VIHVTKEVKEVATLSCGHNVSVEELAQTRIHWQKEKKMVLTMMSGDMNIWPEYKNRTIFDITNNLSVVILALRPSDEGTYECVVLKYEKDAFKREHLAEVTLSVKADFPTPSITDFEIPPSNIRRIICSTSGGFPEPHLSWLENGEELNAINTTVSQDPGTELYTVSSKLDFNMTTNRSFVCLIKYGHLRVNQTFNWNTPKQEHFPDNLLPSWAITLISVNGIFVICCLTYCFAPRCRERKSNERLRRESVRPV | 1
Round 2 CTLA4BP 2x1-f10 (ligand) VIHVTKEVKEVATLSCGHNVSVEELAQTRIHWQKEKKMVLTMMSGDMNIWPEYKNRTIFDITNNLSIVILALRPSDEGTYECVVLKYEKDAFKREHLAEVMLSVKADFPTPSITDFEIPPSNIRRIICSTSGGFPEPRLAWMEDGEELNAINTTVSQDPGTELYAVSSKLDFNMTTNHSFMCLIKYGHLRVNQTFNWNTPKQEHFPDNLLPSWAITLISVNGISVICCLTYCFAPRCRERRRNERLRRESVCPV | 1
Round 2 CTLA4 A-B11-5 (ligand) ITPKSATKRVKETVMLSCDYSTSTEELTSLRIYWQKDSKMVLAILPGKVQVWPEYKNRTITDMNDNPRIVILALRLSDSGTYTCVIQKPDLKGAYKLEHLTSVRLMIRADFPVPTINDLGNPSPNIRRLICSTSGGFPRPHLYWLENGEELNATNTTLSQDPETKLYMISSELDFNMTSNHSFLCLVKYGDLTVSQTFYWQESKPTPSANQHLTWTIIIPVSAFGISVIIAVILTCLTCRNAAIRRQRRENEVEMQSCSQSP | 1
Round 2 CTLA4 A-F6-9 (ligand) ITPKSVTKRVKETVMLSCDYSTSTEELTSLRIYWQKDSKMVLAILPGKVQVWPEYKNRTITDMNDNPRIVILALRLSDSGTYTCVIQKPDLKGAYKLEHLTSVRLMIRADFPVPTINDLGNPSPNIRRLICSTSGGFPRPHLYWLENGEELNATNTTLSQDPETKLYMISSELDFNMTSNHSFLCLVKYGDLTVSQTFYWQESKPTPSANQHLTWTIIIPVSAFGISVIIAVILTCLTCRNAAIRRQRRENEVEMQSCSQSP | 1
Round 2 CTLA4 A-G8-1 (ligand) ITPKSVTKRVKETVMLSCDYNTSTEELTSLRIYWQKDSKMVLAILPGKVQVWPEYKNRTITDMNDNPRIVILALPLSDSGTYTCVIQKPDLKGAYKLEHLTSVRLMIRADFPVPTINDLGNPSPNIRRLICSTSGGFPRPHLYWLENGEELNATNTTLSQDPETKLYMISSELDFNMTSNHSFLCLVKYGDLTVSQTFYWQESKPTPSANQHLTWTIIIPVSAFGISVIIAVILTCLTCRNAAIRRQRRENEVEMQSCSQSP | 1
